In US20160331821A1 (AGENUS, published 2016):
Square brackets hold non-standard residues; d marks the D form. Ends that are not written are not given here. pS = N[C@@H](COP(=O)(O)O)C(=O)O

Tests used:
[1] = molecular target: T1, recombinant human Hsc70 (Genbank Accession No. P11142.1) (human, UniProt P11142 1-646, limits assumed); test: size exclusion chromatography after incubating peptide with Hsc70 in PBS, 37 C, 1 h, 4:1 molar excess peptide:Hsc70
T1 construct: also called rhHsc70; rh-Hsc70
Method: Four peptides (Table 9) containing a phosphorylated serine residue were synthesized to 95% purity (GenScript, Cambridge, Mass.). […] These peptides were individually incubated with Hsc70 in PBS at 37° C. for 1 hour at a 4:1 molar excess (peptide:Hsc70) to form non-covalent Hsc70-peptide complexes. After incubation, the complexes were analyzed by SEC to quantify the proportion of Hsc70 molecules loaded with peptide.

[2] = molecular target: T2, recombinant human Hsc70 (Genbank Accession No. P11142.1) (Biomay AG) (human, UniProt P11142 1-646, limits assumed); test: size exclusion chromatography; Hsc70:peptide molar ratio 1:2, same result at 1:5
T2 construct: Resolves on SEC as a monomeric and an oligomeric form; also called rhHsc70; rh-Hsc70
Method: Standard size exclusion chromatography was carried out using 7 μM of recombinant human Hsc70 (Genbank Accession No. P11142.1) (Biomay AG) in a reaction buffer containing 20 mM HEPES and 200 mM KCL in a final volume of 50 μl. Reactions were incubated at 37° C. for 1 or 2 hours and centrifuged 2 min at 13000 RPM. Reaction products (10 μg) were resolved on a TSKgel SuperSW3000, 4 μm particle size, 25 nm pore size gel filtration chromatography column (Tosoh Bioscience). […] The percentage of Hsc70 complexed with peptide in each reaction mixture was calculated by measuring the surface area of the appropriate peak.
The comparative effect of placing the high affinity Hsc70 binding sequence at the N- and C-terminus of the ovalbumin peptide, linked via the FFRK (SEQ ID NO:447) linker in both cases, was also tested. […] The sequence of the test peptide with the C-terminal high affinity Hsc70 binding sequence was […] (SEQ ID NO:449), and the sequence of the test peptide with N-terminal high affinity Hsc70 binding sequence was […] (SEQ ID NO:450).

T1 sequence (P11142 whole entry, one chain of several): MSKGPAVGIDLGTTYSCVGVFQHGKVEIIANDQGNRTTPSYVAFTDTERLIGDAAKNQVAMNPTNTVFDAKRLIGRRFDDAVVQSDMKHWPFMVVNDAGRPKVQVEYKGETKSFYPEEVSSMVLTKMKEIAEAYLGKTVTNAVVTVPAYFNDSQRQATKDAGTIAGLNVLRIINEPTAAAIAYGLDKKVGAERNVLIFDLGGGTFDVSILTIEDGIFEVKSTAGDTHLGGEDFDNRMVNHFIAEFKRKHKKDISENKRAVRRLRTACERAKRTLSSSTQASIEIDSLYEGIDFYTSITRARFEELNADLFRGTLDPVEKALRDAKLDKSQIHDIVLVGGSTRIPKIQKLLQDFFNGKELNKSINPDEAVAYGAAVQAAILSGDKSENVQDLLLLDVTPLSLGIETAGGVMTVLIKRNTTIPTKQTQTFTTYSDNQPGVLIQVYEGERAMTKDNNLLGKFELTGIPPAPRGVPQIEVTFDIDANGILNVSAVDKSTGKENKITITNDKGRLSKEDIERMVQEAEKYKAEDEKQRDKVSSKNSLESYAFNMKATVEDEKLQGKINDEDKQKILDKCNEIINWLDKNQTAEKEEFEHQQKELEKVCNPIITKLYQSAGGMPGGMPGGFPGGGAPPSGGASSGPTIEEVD
T2 sequence (P11142 whole entry, one chain of several): as above

Percentage of Hsc70 loaded with peptide [1] [%] | binding result [2] | Binder
74 |  | GLLG[pS]PVRAFFRKNLLRLTG
34 |  | NLLRLTGFFRKRVA[pS]PTSGV
 | binds | NLLRLTGFFRKSIINFEKL
41 |  | NLLRLTGFFRKGLLG[pS]PVRA
75 |  | RVA[pS]PTSGVFFRKNLLRLTG
